Experimental data published in paper PMC5467268, “Crystal structures of U6 snRNA-specific terminal uridylyltransferase” (Nature Communications, 2017).

Assays:
[1] = target: T1, TUT1_ΔN (form-II crystal) (Homo sapiens, UniProt Q9H6E5, DEL235-304/C372A/C399A/C415A/C501A/C504S/C574A/DEL651-750); assay: X-ray crystal structure (soak), […] Å; format: binding; details: Mg2+; 10 mM ATP, 20 mM MgCl2; incoming nucleotide site
T1 construct: gene TUT1; palm, fingers and KA-1 domains; residues 1-140, 235-304 and 651-750 removed; cysteine mutations (order of the two mutation sets read as form-I, form-II); pET22b His tag, E. coli
T1 sequence (Q9H6E5 with tags, fused parts or gaps DEL235-304/C372A/C399A/C415A/C501A/C504S/C574A/DEL651-750): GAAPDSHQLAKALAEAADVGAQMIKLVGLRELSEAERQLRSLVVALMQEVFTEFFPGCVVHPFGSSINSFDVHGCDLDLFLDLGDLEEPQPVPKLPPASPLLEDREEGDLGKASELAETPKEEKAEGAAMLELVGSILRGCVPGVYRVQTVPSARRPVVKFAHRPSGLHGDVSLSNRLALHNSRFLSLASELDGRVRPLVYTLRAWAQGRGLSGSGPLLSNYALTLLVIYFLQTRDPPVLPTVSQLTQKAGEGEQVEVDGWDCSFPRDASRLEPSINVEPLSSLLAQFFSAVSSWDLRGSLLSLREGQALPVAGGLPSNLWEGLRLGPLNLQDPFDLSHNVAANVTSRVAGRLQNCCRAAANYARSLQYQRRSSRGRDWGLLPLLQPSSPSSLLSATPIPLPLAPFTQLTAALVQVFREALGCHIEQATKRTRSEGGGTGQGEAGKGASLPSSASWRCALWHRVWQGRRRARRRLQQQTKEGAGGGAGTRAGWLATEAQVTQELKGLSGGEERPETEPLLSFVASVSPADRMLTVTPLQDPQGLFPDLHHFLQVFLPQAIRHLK

TUT1_ΔN (form-I crystal) = target: T2, TUT1_ΔN (form-I crystal) (Homo sapiens, UniProt Q9H6E5, DEL235-304/C372A/C415A/C501A/C504S/DEL651-750); assay: X-ray crystal structure (soak), […] Å; format: binding; details: Ba2+; 2 mM UTP, 4 mM BaCl2; incoming nucleotide site
T2 construct: gene TUT1; palm, fingers and KA-1 domains; residues 1-140, 235-304 and 651-750 removed; cysteine mutations (order of the two mutation sets read as form-I, form-II); pET22b His tag, E. coli
T2 sequence (Q9H6E5 with tags, fused parts or gaps DEL235-304/C372A/C415A/C501A/C504S/DEL651-750): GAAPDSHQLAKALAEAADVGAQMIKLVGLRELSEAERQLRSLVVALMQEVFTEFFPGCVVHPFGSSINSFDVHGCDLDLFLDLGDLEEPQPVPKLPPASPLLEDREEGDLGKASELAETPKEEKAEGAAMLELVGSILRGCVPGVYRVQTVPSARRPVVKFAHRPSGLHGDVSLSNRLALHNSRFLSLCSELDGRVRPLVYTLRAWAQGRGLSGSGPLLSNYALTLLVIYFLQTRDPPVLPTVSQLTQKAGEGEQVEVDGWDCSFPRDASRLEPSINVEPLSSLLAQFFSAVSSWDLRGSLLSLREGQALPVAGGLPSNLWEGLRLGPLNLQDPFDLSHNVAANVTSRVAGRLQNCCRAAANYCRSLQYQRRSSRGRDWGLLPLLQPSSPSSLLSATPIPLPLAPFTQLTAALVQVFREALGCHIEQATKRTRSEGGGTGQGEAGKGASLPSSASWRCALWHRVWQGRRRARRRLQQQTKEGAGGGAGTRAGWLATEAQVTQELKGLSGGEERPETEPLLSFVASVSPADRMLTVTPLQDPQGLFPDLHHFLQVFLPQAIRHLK

[2] = target: T1, TUT1_ΔN (form-II crystal); assay: X-ray crystal structure (soak), […] Å; format: binding; details: Mg2+; 2 mM UTP, 4 mM MgCl2; incoming nucleotide site
purified protein [3] = substrate: O=c1ccn([C@@H]2O[C@H](COP(=O)(O)OP(=O)(O)OP(=O)(O)O)[C@@H](O)[C@H]2O)c(=O)[nH]1; assay: purified protein; format: biochemical, Homo sapiens; details: co-substrate 1 μM U6 snRNA-u4, 10 mM MgCl2, 100 mM NaCl, pH 8.5, 37 °C
purified protein [4] = substrate: Nc1ncnc2c1ncn2[C@@H]1O[C@H](COP(=O)(O)OP(=O)(O)OP(=O)(O)O)[C@@H](O)[C@H]1O; assay: purified protein; format: biochemical, Homo sapiens; details: co-substrate 1 μM U6 snRNA-u4, 10 mM MgCl2, 100 mM NaCl, pH 8.5, 37 °C

Question: `Nc1ncnc2c1ncn2[C@@H]1O[C@H](COP(=O)(O)OP(=O)(O)OP(=O)(O)O)[C@@H](O)[C@H]1O` [ATP] was tested. Which “X-ray crystal structure (soak), 2.8 Å” value [1] did it give?
Answer: form-II TUT1_ΔN with UTP and ATP soaked in were also analysed

Question: How did the “X-ray crystal structure (soak), 2.95 Å” value (TUT1_ΔN (form-I crystal)) turn out when `O=c1ccn([C@@H]2O[C@H](COP(=O)(O)OP(=O)(O)OP(=O)(O)O)[C@@H](O)[C@H]2O)c(=O)[nH]1` [UTP] was run?
Answer: The form-I TUT1_ΔN structure complexed with UTP (soaked in) was initially solved

Question: And the “X-ray crystal structure (soak), 2.7 Å” value [2]?
Answer: form-II TUT1_ΔN with UTP and ATP soaked in were also analysed

B1: human TUT1 (full-length, wild-type) (Homo sapiens) (protein)
chain: MAAVDSDVESLPRGGFRCCLCHVTTANRPSLDAHLGGRKHRHLVELRAARKAQGLRSVFVSGFPRDVDSAQLSEYFLAFGPVASVVMDKDKGVFAIVEMGDVGAREAVLSQSQHSLGGHRLRVRPREQKEFQSPASKSPKGAAPDSHQLAKALAEAADVGAQMIKLVGLRELSEAERQLRSLVVALMQEVFTEFFPGCVVHPFGSSINSFDVHGCDLDLFLDLGDLEEPQPVPKAPESPSLDSALASPLDPQALACTPASPPDSQPPASPQDSEALDFETPSSSLAPQTPDSALASETLASPQSLPPASPLLEDREEGDLGKASELAETPKEEKAEGAAMLELVGSILRGCVPGVYRVQTVPSARRPVVKFCHRPSGLHGDVSLSNRLALHNSRFLSLCSELDGRVRPLVYTLRCWAQGRGLSGSGPLLSNYALTLLVIYFLQTRDPPVLPTVSQLTQKAGEGEQVEVDGWDCSFPRDASRLEPSINVEPLSSLLAQFFSCVSCWDLRGSLLSLREGQALPVAGGLPSNLWEGLRLGPLNLQDPFDLSHNVAANVTSRVAGRLQNCCRAAANYCRSLQYQRRSSRGRDWGLLPLLQPSSPSSLLSATPIPLPLAPFTQLTAALVQVFREALGCHIEQATKRTRSEGGGTGESSQGGTSKRLKVDGQKNCCEEGKEEQQGCAGDGGEDRVEEMVIEVGEMVQDWAMQSPGQPGDLPLTTGKHGAPGEEGQPSHAALAERGPKGHEAAQEWSQGEAGKGASLPSSASWRCALWHRVWQGRRRARRRLQQQTKEGAGGGAGTRAGWLATEAQVTQELKGLSGGEERPETEPLLSFVASVSPADRMLTVTPLQDPQGLFPDLHHFLQVFLPQAIRHLK
notes: full-length 1-874, synthetic codon-optimised gene, pET22b (His tag, no cleavage told), E. coli BL21(DE3), Ni-NTA/heparin/Superdex 200
Question: What does the source list for B1?
Answer: Km (purified protein [3]): 59 µM; kcat (purified protein [3]): 0.059 s^–1; Km (purified protein [4]): 1,380 μM; kcat (purified protein [4]): 0.002 s^–1
